We go through 1 substance from patent US20220267469A1.

Experiment [1] has as its target Biotinylated human BSSL (human) (UniProt P19835). The experiment can be described thus: flow cytometry displacement assay; 1.0 ug antibody, 1 ug b-hBSSL. On the technique in general: In flow cytometry, cells or beads pass a laser one at a time.
The target is the same in experiment [2]. The experiment can be described thus: flow cytometry displacement assay; 0.5 ug antibody, 1 ug b-hBSSL.
Experiment [3] has the same target. The experiment can be described thus: flow cytometry displacement assay; 2.0 ug antibody, 1 ug b-hBSSL.
Experiment [4] has the same target. The experiment can be described thus: flow cytometry displacement assay; 3.0 ug antibody, 1 ug b-hBSSL.
The target is the same in experiment [5]. The experiment can be described thus: flow cytometry displacement assay; 1.5 ug antibody, 1 ug b-hBSSL.

Biotinylated human BSSL (human), sequence (P19835 other isoform, or with tags, fused parts or gaps): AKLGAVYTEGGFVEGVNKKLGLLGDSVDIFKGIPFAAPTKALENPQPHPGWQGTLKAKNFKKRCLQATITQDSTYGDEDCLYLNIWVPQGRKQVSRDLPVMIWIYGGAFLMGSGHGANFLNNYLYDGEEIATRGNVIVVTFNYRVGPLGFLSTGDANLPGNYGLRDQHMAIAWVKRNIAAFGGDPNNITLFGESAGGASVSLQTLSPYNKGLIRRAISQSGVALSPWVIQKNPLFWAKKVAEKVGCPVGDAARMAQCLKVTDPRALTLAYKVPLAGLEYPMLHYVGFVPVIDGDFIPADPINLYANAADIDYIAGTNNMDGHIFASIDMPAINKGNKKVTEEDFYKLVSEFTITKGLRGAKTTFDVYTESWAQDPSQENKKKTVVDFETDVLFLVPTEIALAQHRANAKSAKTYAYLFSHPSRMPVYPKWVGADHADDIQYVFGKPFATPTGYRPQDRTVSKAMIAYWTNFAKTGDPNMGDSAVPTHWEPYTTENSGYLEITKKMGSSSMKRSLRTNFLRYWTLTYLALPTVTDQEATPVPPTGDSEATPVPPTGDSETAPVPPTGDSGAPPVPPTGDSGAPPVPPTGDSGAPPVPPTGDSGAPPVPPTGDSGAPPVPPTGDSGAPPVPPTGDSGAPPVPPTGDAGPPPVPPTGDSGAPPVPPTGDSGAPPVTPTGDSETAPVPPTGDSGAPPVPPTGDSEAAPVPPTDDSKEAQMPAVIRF

Consider “anti-human alpha-synuclein mlgG1 (antibody)”, for which the percentage reduction of b-hBSSL binding to CD14+ monocytes in experiment [1] was -2%; in experiment [2], -8%; in experiment [3], -1%; in experiment [4], -7%; in experiment [5], -4%.
